# Assay results: PMC11383277 (bioRxiv, 2024)
# B1: Protoxin-I (peptide)
# peptide: ECRYWLGGCSAGQTCCKHLVCSRRHGWCVWDGTFS
# Molecular target: human NaV1.8 alpha-subunit (human, UniProt Q9Y5Y9 1-1956, M1713V)
# Assay: cryo-EM structure
binder,measurement,value
B1,binding result,binds
